Results on 94 variants are retold here after the supplement of paper PMC10567573.

To fix the notation:
B1: C10orf62 (parent)
chain: RALEEVEMKLQKNFLTQRENTIAG
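Also: lentivirally expressed fusions sorted by FACS into six bins by GFP to DsRed ratio, PSI derived from sequencing read proportions per bin multiplied by bin number.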

Variants of B1 are the subject of this data set. The data set is described as follows: protein stability index of a GFP-peptide fusion (GPS, HEK-293T) (PSI 1-6); higher = more stable. Conditions: c terminus: a fixed tail appended.
Consider RALEEVEMKLQKNFTTQRENTIAG, for which the protein stability index was 3.66.
The same measure for RALEEVEMKLQKNFVTQRENTIAG: 3.77; for RALEEVEMKLQKNFKTQRENTIAG: 4.21.
Take RALEEVEMKLQKNFHTQRENTIAG: the protein stability index worked out at 3.85.
RALEEVEMKLQKNFRTQRENTIAG: the protein stability index was 3.94.
For the variant RALEEVEMKLQKNFNTQRENTIAG, the protein stability index was 3.99.
As to RALEEVEMKLQKNFYTQRENTIAG, the protein stability index came out at 3.71.
For RALEEVEMKLQKNFPTQRENTIAG the value was 3.89.
The same measure for RALEEVEMKLQKNFDTQRENTIAG: 4.69; for RALEEVEMKLQKNFSTQRENTIAG: 4.38; for RALEEVEMKLQKNFQTQRENTIAG: 4.84.
The same measure for RALEEVEMKLQKNFCTQRENTIAG: 3.44.
Regarding RALEEVEMKLQKNFWTQRENTIAG, the protein stability index worked out at 2.63.
In the case of RALEEVEMKLQKNFATQRENTIAG, the protein stability index is 3.92.
RALEEVEMKLQKNFMTQRENTIAG: the protein stability index came to 3.62.
Regarding RALEEVEMKLQKNFETQRENTIAG, the protein stability index is 4.3.
The same measure for RALEEVEMKLQKNFGTQRENTIAG: 3.9; for RALEEVEMKLQKNFITQRENTIAG: 3.71; for RALEEVEMKLQKNFLTQRENTIMG: 3.05.
Consider RALEEVEMKLQKNFLTQRENTIEG, for which the protein stability index stood at 4.28.
Take RALEEVEMKLQKNFLTQRENTIYG: the protein stability index stood at 2.91.
For RALEEVEMKLQKNFLTQRENTIQG the value was 3.64.
RALEEVEMKLQKNFLTQRENTIIG: the protein stability index stood at 3.02.
As for RALEEVEMKLQKNFLTQRENTIRG, the protein stability index was found to be 3.51.
For the variant RALEEVEMKLQKNFLTQRENTIHG, the protein stability index was 3.19.
As for RALEEVEMKLQKNFLTQRENTITG, the protein stability index came out at 3.67.
Take RALEEVEMKLQKNFLTQRENTIDG: the protein stability index is 4.19.
For the variant RALEEVEMKLQKNFLTQRENTISG, the protein stability index turned out to be 3.42.
For RALEEVEMKLQKNFLTQRENTING, the protein stability index came out at 3.2.
Consider RALEEVEMKLQKNFLTQRENTIPG, for which the protein stability index stood at 3.93.
With RALEEVEMKLQKNFLTQRENTIVG, the protein stability index is 3.44.
With RALEEVEMKLQKNFLTQRENTIKG, the protein stability index was 4.31.
On to RALEEVEMKLQKNFLTQRENTICG, for which the protein stability index was 3.36.
Consider RALEEVEMKLQKNFLTQRENTIGG, for which the protein stability index amounted to 3.41.
On to RALEEVEMKLQKNFLTQRENTILG, for which the protein stability index came to 3.02.
RALEEVEMKLQKNFLTQRENTIWG: the protein stability index was 2.07.
Consider RALEEVEMKLQKNFLTQRENTIFG, for which the protein stability index stood at 2.66.
Take RALEEVEMKLQKNFLTQRENEIAG: the protein stability index is 4.16.
RALEEVEMKLQKNFLTQRENAIAG: the protein stability index was 3.56.
Take RALEEVEMKLQKNFLTQRENDIAG: the protein stability index came out at 3.92.
As to RALEEVEMKLQKNFLTQRENRIAG, the protein stability index is 3.2.
RALEEVEMKLQKNFLTQRENNIAG: the protein stability index worked out at 3.61.
The same measure for RALEEVEMKLQKNFLTQRENPIAG: 3.7; for RALEEVEMKLQKNFLTQRENWIAG: 2.93.
Regarding RALEEVEMKLQKNFLTQRENHIAG, the protein stability index is 3.69.
For the variant RALEEVEMKLQKNFLTQRENKIAG, the protein stability index came to 3.51.
Consider RALEEVEMKLQKNFLTQRENMIAG, for which the protein stability index was found to be 3.27.
For RALEEVEMKLQKNFLTQRENLIAG, the protein stability index is 3.2.
The same measure for RALEEVEMKLQKNFLTQRENIIAG: 3.34; for RALEEVEMKLQKNFLTQRENQIAG: 3.85; for RALEEVEMKLQKNFLTQRENVIAG: 3.36.
The same measure for RALEEVEMKLQKNFLTQRENSIAG: 4.06; for RALEEVEMKLQKNFLTQRENCIAG: 3.73.
The same measure for RALEEVEMKLQKNFLTQRENGIAG: 3.23.
On to RALEEVEMKLQKNFLTQRENFIAG, for which the protein stability index was 2.86.
In the case of RALEEVEMKLQKNFLTQRENYIAG, the protein stability index is 2.69.
For RALEEVEMKLQKNFLTQYENTIAG the value was 2.64.
In the case of RALEEVEMKLQKNFLTQIENTIAG, the protein stability index amounted to 3.09.
For RALEEVEMKLQKNFLTQEENTIAG the value was 4.29; for RALEEVEMKLQKNFLTQHENTIAG, 3.96.
Take RALEEVEMKLQKNFLTQKENTIAG: the protein stability index was determined as 3.74.
On to RALEEVEMKLQKNFLTQGENTIAG, for which the protein stability index worked out at 3.73.
For RALEEVEMKLQKNFLTQVENTIAG the value was 2.35.
Turning to RALEEVEMKLQKNFLTQCENTIAG, the protein stability index came to 2.91.
For RALEEVEMKLQKNFLTQMENTIAG the value was 3.12.
With RALEEVEMKLQKNFLTQDENTIAG, the protein stability index amounted to 4.59.
The same measure for RALEEVEMKLQKNFLTQAENTIAG: 3.19; for RALEEVEMKLQKNFLTQSENTIAG: 4.18.
On to RALEEVEMKLQKNFLTQLENTIAG, for which the protein stability index came out at 2.08.
With RALEEVEMKLQKNFLTQPENTIAG, the protein stability index came out at 3.72.
In the case of RALEEVEMKLQKNFLTQWENTIAG, the protein stability index stood at 2.47.
Regarding RALEEVEMKLQKNFLTQFENTIAG, the protein stability index came to 2.53.
RALEEVEMKLQKNFLTQTENTIAG: the protein stability index was found to be 3.46.
Consider RALEEVEMKLQKNFLTQNENTIAG, for which the protein stability index is 4.05.
For RALEEVEMKLQKNFLTQQENTIAG, the protein stability index is 3.85.
As for RALEEVEMKLQKNFLTQRENTIAA, the protein stability index was 3.4.
In the case of RALEEVEMKLQKNFLTQRENTIAC, the protein stability index is 3.23.
Regarding RALEEVEMKLQKNFLTQRPNTIAG, the protein stability index was found to be 2.85.
Consider RALEEVEMKLQKNFLTQRWNTIAG, for which the protein stability index was determined as 2.05.
As for RALEEVEMKLQKNFLTQRFNTIAG, the protein stability index came to 1.86.
The same measure for RALEEVEMKLQKNFLTQRYNTIAG: 1.81; for RALEEVEMKLQKNFLTQRNNTIAG: 3.2.
Turning to RALEEVEMKLQKNFLTQRSNTIAG, the protein stability index is 3.37.
For the variant RALEEVEMKLQKNFLTQRHNTIAG, the protein stability index came to 3.13.
Take RALEEVEMKLQKNFLTQRLNTIAG: the protein stability index was 2.04.
With RALEEVEMKLQKNFLTQRKNTIAG, the protein stability index was 3.53.
In the case of RALEEVEMKLQKNFLTQRQNTIAG, the protein stability index amounted to 2.84.
Consider RALEEVEMKLQKNFLTQRINTIAG, for which the protein stability index stood at 2.04.
On to RALEEVEMKLQKNFLTQRANTIAG, for which the protein stability index stood at 3.82.
RALEEVEMKLQKNFLTQRVNTIAG: the protein stability index was 2.3.
For RALEEVEMKLQKNFLTQRMNTIAG, the protein stability index stood at 2.65.
For the variant RALEEVEMKLQKNFLTQRGNTIAG, the protein stability index worked out at 3.31.
For RALEEVEMKLQKNFLTQRTNTIAG the value was 2.92; for RALEEVEMKLQKNFLTQRRNTIAG, 3.12.
